The source of these data is US20230190870A1, “Method for Treating Lysosomal Storage Diseases with Histatin Peptides” (THE BOARD OF TRUSTEES OF THE UNIVERSITY OF ILLINOIS, priority 2020, published 2023).

The target in data set [1] is T1, GST-TMEM97 (108-176) (Homo sapiens, UniProt Q5BJF2).
T1 construct: GST-TMEM97 (108-176, recombinant GST-C terminal from wheat germ); purchased Abnova (Taipei City, Taiwan); host or cells: wheat germ (cell-free)
Briefly: Surface plasmon resonance, immobilized GST-TMEM97 (108-176). The data set is classed as binding. As to conditions: SPR. The protocol:
(§1) Surface Plasmon Resonance (SPR). Recombinant full-length TMEM97 (also called MAC30, from HEK293 cells) and GST-TMEM97 (108-176, recombinant GST-C terminal from wheat germ) proteins were purchased from OriGene (Rockville, Md.) and Abnova (Taipei City, Taiwan), respectively. Three peptides, TMEM97 (108-176), TMEM97 (108-143) and TMEM97 (144-176), were synthesized. All proteins and peptides were initially prepared in HBS buffer containing 10 mM HEPES, pH 7.4, 150 mM NaCl, and 0.05% surfactant P20. The CM5 sensor surface was first activated by 1-ethyl-3-(3-dimethylaminopropyl) carbodiimide hydrochloride (EDC)/N-hydroxy succinimide (NHS) mixture using a Biacore T200 or Biacore 8K instrument (GE Healthcare). […] Flow channels 1 and 3 were used as references.
(§2) The three synthesized peptides were diluted to 50 μg/mL in 10 mM sodium acetate at pH 4.0 and immobilized to flow channels 2, 3 and 4, respectively, on another sensor chip. The unmodified surfaces on a flow channel 1 were used as a reference control. Histatin solutions with a series of increasing concentrations (0.78-25 μM at 2-fold dilution) were applied to all four channels at a 30 μL/minute flow rate at 25° C. The data were double-referenced with reference channel and zero concentration responses, and reference subtracted sensorgrams were fitted with 1 to 1 Langmuir kinetic model using a Biacore T200 evaluation software V3.0 or Insight evaluation software. The equilibrium dissociation constants ([…]) were determined from two rate constants (KD=kd/ka).
(§3) To determine the region(s) of Hst1 that mediate binding to TMEM97, SPR testing was performed with various Hst1 fragments and either recombinant TMEM97 (GST-tagged, wheat-germ derived, C-terminal fragment TMEM97 (108-176)) or synthesized TMEM97 (TMEM97 (108-176), TMEM97 (108-143) and TMEM97 (144-176)).

Data set [2] deals with T2, Synthetic TMEM97 (108-176) (Homo sapiens, UniProt Q5BJF2).
T2 construct: Three peptides, TMEM97 (108-176), TMEM97 (108-143) and TMEM97 (144-176), were synthesized; made in house; host or cells: chemical solid-phase synthesis (Fmoc, Wang resin)
Briefly: Surface plasmon resonance, immobilized synthetic TMEM97 (108-176). As to conditions: SPR. The data set is classed as binding. The method, then:
as §1, §2
(§4) To determine more precisely which segment of TMEM97 is necessary for binding of Hst1, multiple synthetic fragments of TMEM97 were generated (Table 6) and binding to Hst1 was tested using SPR. […] Smaller fragments of the C-terminal of TMEM97 were then constructed to represent the (predicted) luminal (108-143) and cytoplasmic (144-176) exposed segments of the C-terminus of TMEM97 based on modeling experiments previously described. […] SPR results for Hst1 were confirmed using ITC as an orthogonal analytical method.
as §3
For orientation: SPR reads the build-up and loss of mass on a sensor chip optically.

The target in data set [3] is T3, Synthetic TMEM97 (144-176) (Homo sapiens, UniProt Q5BJF2).
T3 construct: made in house; host or cells: chemical solid-phase synthesis (Fmoc, Wang resin)
Put plainly: Surface plasmon resonance, immobilized synthetic TMEM97 (144-176). As to conditions: SPR. Format: binding. The method, then: as §1, §2, §4, §3

The target of data set [4] is T4, Synthetic TMEM97 (108-143) (Homo sapiens, UniProt Q5BJF2).
T4 construct: made in house; host or cells: chemical solid-phase synthesis (Fmoc, Wang resin)
Briefly: Surface plasmon resonance, immobilized synthetic TMEM97 (108-143). Format: binding. As to conditions: SPR. The method, then: as §1, §2, §4, §3

Data set [5] concerns the target T5, full-length recombinant TMEM97 (HEK293 cells) (Homo sapiens, UniProt Q5BJF2).
T5 construct: Recombinant full-length TMEM97 (also called MAC30, from HEK293 cells); purchased OriGene (Rockville, Md.); host or cells: HEK293 cells
Briefly: Surface plasmon resonance, immobilized full-length TMEM97. The data set is classed as binding. The note with it: SPR.
Method: The three synthesized peptides were diluted to 50 μg/mL in 10 mM sodium acetate at pH 4.0 and immobilized to flow channels 2, 3 and 4, respectively, on another sensor chip. The unmodified surfaces on a flow channel 1 were used as a reference control. […] The data were double-referenced with reference channel and zero concentration responses, and reference subtracted sensorgrams were fitted with 1 to 1 Langmuir kinetic model using a Biacore T200 evaluation software V3.0 or Insight evaluation software. The equilibrium dissociation constants (K&) were determined from two rate constants (KD=kd/ka).

The test system of data set [6] is HCE cells. Put plainly: Immunofluorescence imaging of internalization and localization. Format: cell-based, human. The note with it: 24 hours after exposure. The method, then: Immunofluorescence Imaging. HCE cells were seeded on glass coverslips (Fisher Scientific Co.; Pittsburgh, Pa.) within a 6-well plate at 3×10^5 (cells/well) seeding density. […] HCE cells were then fixed in 3.7% paraformaldehyde, permeabilized with phosphate-buffered saline (PBS) containing 0.2% TRITON™ X-100 for 5 minutes, and washed three times for 5 minutes each time in PBS. For blocking, cells were and incubated at room temperature for 30 minutes with 5% bovine serum albumin (BSA) and 5% normal goat serum in PBS. For the Endoplasmic Reticulum (ER) staining, a Cytopainter ER staining kit (Abcam; Cambridge, Mass.) was used, following the manufacturer's instructions. After washing with 1×Assay buffer, cells were incubated with Green Detection Reagent to cover the monolayer of cells. For the detection of Hst1 and TMEM97, mouse anti-Hst1 antibody (Abcam; Cambridge, Mass.), rabbit primary antibody against Hst1 (Mybiosource; San Diego, Calif.), and rabbit anti-TMEM97 antibody (Novus Bio.; Littleton, Colo.) were used. Cells were incubated overnight at 4° C. with primary antibodies, washed three times for 5 minutes each time in PBS before incubation with secondary antibodies for 30 minutes. Cells were then counterstained with 1 μg/mL 4′,6-diamidino-2-phenylindole (DAPI) solution in PBS for 3 minutes, then washed three times with PBS containing 0.05% TRITON™ X-100 for 5 minutes each time, twice with PBS for 5 minutes each time, and once with distilled water for 10 seconds. The cells were mounted in Fluoro gel with Tris buffer (Electron Microscopy Sciences; Hatfield, Pa.) and observed under a confocal microscope (Zeiss LSM 710 Confocal Microscope; Oberkochen, Germany) using a 40×objective. Fluorescent dye sold under the tradename ALEXA FLUOR® 488 NHS Ester (Molecular Probes; Carlsbad, Calif.) was used for making Alexa-488 coupled synthetic Hst1.
Transfection/Knock-Down of TMEM97. Sub-confluent monolayers of HCE cells in grown in 35-mm six-well plates were transfected with reaction mixtures composed of 100 pmol of small interfering RNA (siRNA) to TMEM97 (Santa Cruz Biotechnology; Dallas, Tex.) for 48 hours and 5 μL of transfection reagent sold under the tradename LIPOFECTAMINE® 2000 (Invitrogen; Carlsbad, Calif.) in culture medium sold under the tradename OPTI-MEMO media (Gibco Life Technologies; Grand Island, N.Y.). Complexes were incubated for 20 minutes at 24° C. and then added to cells at 37° C. Incubation was continued for 24 to 48 hours at 37° C. in 5% CO2. Knock-down (KD) of TMEM97 was confirmed by western blot analysis using a rabbit anti-TMEM97 antibody (Novus Bio.; Littleton, Colo.). […]

The target in data set [7] is T6, Synthetic TMEM97 (144-176) peptide.
T6 construct: Synthetic peptide; also called (predicted) cytoplasmic segment
T6 peptide: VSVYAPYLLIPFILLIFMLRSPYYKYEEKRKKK
Briefly: SPR.

Data set [8] addresses T7, Synthetic TMEM97 (108-176) peptide.
T7 construct: Synthetic peptide; also called full C-terminal synthetic TMEM97
T7 peptide: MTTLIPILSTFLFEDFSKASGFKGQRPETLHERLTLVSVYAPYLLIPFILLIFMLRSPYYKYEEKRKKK
Put plainly: SPR.

Data set [9] can be described thus: Circular dichroism secondary structure analysis (DichroWeb). The data set is classed as physicochemical. The protocol:
Circular Dichroism (CD). CD analysis was performed on a Jasco 815 CD spectrometer at room temperature. TMEM97 (108-176) and Hst1 full-length peptides were prepared as 10 mM stock in 25% DMSO and water, respectively, and diluted to 0.15 mg/mL final concentration in 10 mM […] buffer. A total of 400 μL of each sample was added into a 1 mm quartz sample cell, and CD spectra were recorded from 260 nm to 190 nm wavelength. Data points were measure in 0.5 nm wavelength step at a scanning speed of 100 nm/minute. A total of five spectra were acquired for each sample and averaged. […] buffer without peptide was used as a control curve, which was subsequently subtracted from the CD spectra of peptide samples. The resulting buffer control subtracted CD intensity row data in millidegrees were submitted to DichroWeb and fitted with multiple embedded models and converted to mean residue ellipticity.
Subsequently, the hypothesis that interaction between Hst1 and TMEM97 could affect the structure of each protein was tested. Also, the secondary structure of Hst1 and TMEM97 was tested in solution using CD measurements. It was noted that Hst1 alone is mostly disordered (over 50%) with some degree of β-strand, while TMEM97 (108-176) contains some α-helical and β-strand regions with ˜34% disordered regions. According to CD spectra comparison, there seemed to be more secondary structures formed upon Hst1 binding to TMEM97 (108-176).

Setting [10] is: CD, fraction of secondary structure.

Square brackets hold non-standard residues; d marks the D form. Ends that are not written are not given here. Peptide text beside a SMILES is read from it. pS = N[C@@H](COP(=O)(O)O)C(=O)O

T5 sequence (Q5BJF2 whole entry): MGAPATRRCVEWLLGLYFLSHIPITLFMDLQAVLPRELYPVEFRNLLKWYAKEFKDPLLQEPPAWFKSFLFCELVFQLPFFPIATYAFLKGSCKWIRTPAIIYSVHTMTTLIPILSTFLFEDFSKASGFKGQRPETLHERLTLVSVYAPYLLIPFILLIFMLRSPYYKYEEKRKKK

As to `N=C(N)NCCC[C@H](NC(=O)[C@H](Cc1ccc(O)cc1)NC(=O)CNC(=O)[C@H](Cc1c[nH]cn1)NC(=O)[C@H](Cc1c[nH]cn1)NC(=O)[C@H](CCCNC(=N)N)NC(=O)[C@H](CCCCN)NC(=O)[C@H](CCC(=O)O)NC(=O)[C@H](Cc1c[nH]cn1)NC(=O)[C@H](COP(=O)(O)O)NC(=O)[C@@H](N)CC(=O)O)C(=O)N[C@@H](CCCNC(=N)N)C(=O)N[C@@H](CCCCN)C(=O)N[C@@H](Cc1ccccc1)C(=O)N[C@@H](Cc1c[nH]cn1)C(=O)N[C@@H](CCC(=O)O)C(=O)N[C@@H](CCCCN)C(=O)N[C@@H](Cc1c[nH]cn1)C(=O)N[C@@H](Cc1c[nH]cn1)C(=O)O` [Hst1(1-19)] (H-D[pS]HEKRHHGYRRKFHEKHH-OH), the entries for the “% Rmax” value in data set [1], in [2] and in data set [3] were “(% Rmax = 32%)”, “(% Rmax = 19%)” and “(% Rmax = 16%)”, respectively.
Regarding `N=C(N)NCCC[C@H](NC(=O)[C@H](Cc1ccc(O)cc1)NC(=O)CNC(=O)[C@H](Cc1c[nH]cn1)NC(=O)[C@H](Cc1c[nH]cn1)NC(=O)[C@H](CCCNC(=N)N)NC(=O)[C@H](CCCCN)NC(=O)[C@H](CCC(=O)O)NC(=O)[C@H](Cc1c[nH]cn1)NC(=O)[C@H](COP(=O)(O)O)NC(=O)[C@@H](N)CC(=O)O)C(=O)N[C@@H](CCCNC(=N)N)C(=O)N[C@@H](CCCCN)C(=O)N[C@@H](Cc1ccccc1)C(=O)N[C@@H](Cc1c[nH]cn1)C(=O)N[C@@H](CCC(=O)O)C(=O)N[C@@H](CCCCN)C(=O)N[C@@H](Cc1c[nH]cn1)C(=O)N[C@@H](Cc1c[nH]cn1)C(=O)N[C@@H](CO)C(=O)N[C@@H](Cc1c[nH]cn1)C(=O)N[C@@H](CCCNC(=N)N)C(=O)N[C@@H](CCC(=O)O)C(=O)N[C@@H](Cc1ccccc1)C(=O)N1CCC[C@H]1C(=O)N[C@@H](Cc1ccccc1)C(=O)O` [Hst1(1-26)] (H-D[pS]HEKRHHGYRRKFHEKHHSHREFPF-OH), the “% Rmax” value in data set [1] was “(% Rmax = 24%)”; in [2], “(% Rmax = 8%)”; in data set [3], “(% Rmax = 4%)”. In addition, the KD / binding entry in [4] is recorded as “No binding”.
For “HYHKFHRYYDPGSNLYKEHNHGFHHGYKDEFRREpSRDS (HYHKFHRYYDPGSNLYKEHNHGFHHGYKDEFRRE[pS]RDS) [reference compound]”, the results for the “% Rmax” value in data set [1] and in data set [5] were 5% and 8%, respectively. The KD result was “No binding” in data set [1] and “No binding” in data set [5] (25° C., 1 to 1 Langmuir kinetic model).
Turning to “Hst1(1-14): Hst1 fragment, residues 1-14 (DSHEKRHHGYRRKF)”, the KD / binding entry in data set [4] was “No binding”. The KD result in data set [2] and in [3] was “No binding” each time.
Consider “Hst1(15-38): Hst1 fragment, residues 15-38 (HEKHHSHREFPFYGDYGSNYLYDN)”, for which the KD entry in [1], in [2] and in data set [3] was “No binding” in each case.
For the molecule “Hst1(20-32): Hst1 fragment, residues 20-32 (SHREFPFYGDYGS)”, the KD result in data set [3] is reported as “No binding”.
With “fluorescent dye-coupled synthetic Hst1: synthetic Hst1 coupled with ALEXA FLUOR 488 NHS Ester (D[pS]HEKRHHGYRRKFHEKHHSHREFPFYGDYGSNYLYDN; also: coupled with Alexa Fluor 488 NHS ester, site not given here; UniProt P15515 20-57, looked up)”, the internalization into cells result in data set [6] is listed as “internalized into HCE cells”.
Turning to SHREFPFYGDYGS (Fragment of Hst1) [Hst1(20-32)], in [7], the binding result is recorded as “no binding”.
As for HEKHHSHREFPFYGDYGSNYLYDN (Fragment of Hst1) [Hst1(15-38)], the binding result in [8] and in [7] was “no binding” in each case.

B1: MTTLIPILSTFLFEDFSKASGFKGQRPETLHERLTLVSVYAPYLLIPFILLIFMLRSPYYKYEEKRKKK (peptide)
chain: T7 peptide
In turn, B1 returned a disordered regions in data set [9] (CD in solution) of around 34%. In data set [9] (setting [10]), the Helix came out at 0.14, the Strand was 0.31, the Turns worked out at 0.21 and the Unordered was 0.34.
